In the supplement of paper PMC10567573 one finds protein stability index data, which are given here for 36 sequences.

This data set can be described thus: protein stability index of a GFP-peptide fusion (GPS, HEK-293T) (PSI 1-6); higher = more stable. The following applies: c terminus: a fixed tail appended.

± gives the standard deviation.
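Also: 24-mer peptide tiles fused after GFP, lentivirally expressed, FACS-sorted into six equal bins by GFP/DsRed ratio, decoded by Illumina sequencing, PSI is the read-weighted mean bin number.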

Consider PFNQSTFNNVVEQNFKNRESYPED [DLC1], for which the protein stability index reads like this: (treatment: DMSO) 4.62 ± 0.14; (treatment: MLN4924 1 uM, 8 h) 4.66 ± 0.16.
For PGRPRTDGENVFTGQSKIYSYMSP [KMT5A], in that order: 3.4 ± 0.39 and 3.58 ± 0.23.
In the same order, the values of PHLMPSNCGLEEKIANLGSCNDSK [S100A14] are 2.61 ± 0.9 and 1.66 ± 0.27.
Regarding PHQPVTAITRVSDRFSGETSAAAL [SMTNL2], the protein stability index amounted to 4.32 ± 0.39 (treatment: DMSO) and 4.32 ± 0.17 (treatment: MLN4924 1 uM, 8 h).
In the same order, the values of PKLREETAHMLGVRELRIAFREFD [CABP4] are 2.92 ± 0.29 and 3.17 ± 0.29.
In the same order, the values of PLGLEVDQFLEDVRLQERTSGGLL [NOP53] are 4.42 ± 0.14 and 4.47 ± 0.12.
In turn, PLNPKPHKKKSPGEKPHRCPQCGK [ZNF449] registered a protein stability index (treatment: DMSO) of 4.24 ± 0.12 and a protein stability index (treatment: MLN4924 1 uM, 8 h) of 4.49 ± 0.35.
In the same order, the values of PLRAVHINLEEKEKQIRSFLIEGP [PLEKHN1] are 3.7 ± 0.31 and 3.8 ± 0.2.
For PNTAVSVHVSESSDDDEEEEENIG [ACBD3], in that order: 5.5 ± 0.3 and 5.63 ± 0.12.
In the same order, the values of PPQPMVPLAVENQAGGEGAGGELG [PBXIP1] are 5.52 ± 0.11 and 5.51 ± 0.12.
Consider PPTRGPPPSYGGSSRYDDYSSSRD [RBMX], for which the protein stability index is 5.05 ± 0.23 (treatment: DMSO) and 4.93 ± 0.19 (treatment: MLN4924 1 uM, 8 h).
In the same order, the values of PQDGSYPRQADHDDHECCERVVIN [KCNA1] are 5.22 ± 0.41 and 5.18 ± 0.34.
As for PQDSGTAAWKGRVLLPETQKRQQL [C22orf31], the protein stability index is 4.44 ± 0.17 (treatment: DMSO) and 4.27 ± 0.29 (treatment: MLN4924 1 uM, 8 h).
In the same order, the values of PQEESEESNVSMASLGEKRDHHST [CHGB] are 5.59 ± 0.37 and 5.58 ± 0.16.
For the sequence PQSPPSCRAPPPEARGIRAPPLPD [FCHO1], the protein stability index is, setting by setting: (treatment: DMSO) 4.92 ± 0.12; (treatment: MLN4924 1 uM, 8 h) 5.09 ± 0.24.
Turning to PREQAARFCSEIKSSKYGEGHQAW [SEPHS2], the protein stability index (treatment: DMSO) amounted to 3.36 ± 0.12 and the protein stability index (treatment: MLN4924 1 uM, 8 h) was 3.52 ± 0.19.
PRMLRESGHGDAHLQEYAGNFQGI [FATE1] showed a protein stability index (treatment: DMSO) of 4 ± 0.24 and a protein stability index (treatment: MLN4924 1 uM, 8 h) of 4.22 ± 0.13.
For PSMIATGSVGAAICGLQQDEEVSS [CCND2], the protein stability index reads like this: (treatment: DMSO) 5.41 ± 0.1; (treatment: MLN4924 1 uM, 8 h) 5.15 ± 0.27.
Turning to PTQVPAAEDYLTWKEWGFTGVQEV [SPAG8], the protein stability index runs as follows: (treatment: DMSO) 3.5 ± 0.24; (treatment: MLN4924 1 uM, 8 h) 3.59 ± 0.31.
For PTVHVEVHQRGSSTAKKEDINLSV [TRIP13], in that order: 4.83 ± 0.2 and 4.84 ± 0.29.
With PVIAAPSMWTRPQIKDFKEKIQQD [ACBD3], the protein stability index by setting is: (treatment: DMSO) 4.59 ± 0.32; (treatment: MLN4924 1 uM, 8 h) 4.41 ± 0.4.
For PVKELAALPKATILDLSCNKLTTL [LRRC59], the protein stability index stood at 3.26 ± 0.1 (treatment: DMSO) and 3.43 ± 0.35 (treatment: MLN4924 1 uM, 8 h).
For PVRAYDFLLKFLLVGDSDVGKGEI [RAB40B], in that order: 2.28 ± 0.3 and 2.62 ± 0.58.
For PYYLRSFLVVLKTVLENEDDMLLF [FAN1], in that order: 2.27 ± 0.36 and 2.26 ± 0.25.
In the same order, the values of QACARNILVQTPESESPQSHRAAG [TRIM9] are 4.46 ± 0.16 and 4.5 ± 0.27.
QACMGGRCLHMDQLQDFNIPQAGG [ADAMTS4]: the protein stability index is, setting by setting: (treatment: DMSO) 3.38 ± 0.15; (treatment: MLN4924 1 uM, 8 h) 3.21 ± 0.09.
In the same order, the values of QAQQKKAPAKKANSTTTAGRDHFL [BRD3] are 4.44 ± 0.48 and 4.62 ± 0.15.
In the same order, the values of QARHQLVLTAVDGGTPARSGTTLI [PCDHGC5] are 3.18 ± 0.083 and 3.15 ± 0.38.
In the same order, the values of QEGSSGMELSWGQSPGQPVQGGSE [TEX19] are 5.28 ± 0.26 and 5.29 ± 0.51.
For QEKEELRELNDRLAVYIDKVRSLE [LMNB1], the protein stability index (treatment: DMSO) turned out to be 3.72 ± 0.31 and the protein stability index (treatment: MLN4924 1 uM, 8 h) came to 3.9 ± 0.2.
In the same order, the values of QGRKIAEVCCTSIVYATEKKQTKV [KCTD13] are 3.39 ± 0.15 and 3.61 ± 0.28.
In the same order, the values of QIKTLLALSCHEQEMVVSSLVIGA [SLC2A12] are 3.78 ± 0.47 and 3.1 ± 0.55.
For QIPVTDSGRHILEDSCAELGESKE [SDE2], in that order: 5.35 ± 0.12 and 5.19 ± 0.38.
For the sequence QIRTVIQYQTVRYDILPLSPVSRN [CTDNEP1], the protein stability index amounted to 2.36 ± 0.2 (treatment: DMSO) and 2.26 ± 0.13 (treatment: MLN4924 1 uM, 8 h).
On to QKASLLIQQALTMFPGVLLPLLES [TCF25], for which the protein stability index reads like this: (treatment: DMSO) 3.23 ± 0.48; (treatment: MLN4924 1 uM, 8 h) 3.51 ± 0.29.
For QKKDCVPLMKPHRPWADTCSSSGK [HESX1], in that order: 3.49 ± 0.52 and 3.67 ± 0.53.
